Residue numbers refer to the chain shown, from its start.
T1: hiR2-FL-P533-T7 (deletion of P533) (human, UniProt Q6PJF5 1-856)
T1 construct: single residue deletion, not a substitution; on MEF-DKO cells
T1 sequence: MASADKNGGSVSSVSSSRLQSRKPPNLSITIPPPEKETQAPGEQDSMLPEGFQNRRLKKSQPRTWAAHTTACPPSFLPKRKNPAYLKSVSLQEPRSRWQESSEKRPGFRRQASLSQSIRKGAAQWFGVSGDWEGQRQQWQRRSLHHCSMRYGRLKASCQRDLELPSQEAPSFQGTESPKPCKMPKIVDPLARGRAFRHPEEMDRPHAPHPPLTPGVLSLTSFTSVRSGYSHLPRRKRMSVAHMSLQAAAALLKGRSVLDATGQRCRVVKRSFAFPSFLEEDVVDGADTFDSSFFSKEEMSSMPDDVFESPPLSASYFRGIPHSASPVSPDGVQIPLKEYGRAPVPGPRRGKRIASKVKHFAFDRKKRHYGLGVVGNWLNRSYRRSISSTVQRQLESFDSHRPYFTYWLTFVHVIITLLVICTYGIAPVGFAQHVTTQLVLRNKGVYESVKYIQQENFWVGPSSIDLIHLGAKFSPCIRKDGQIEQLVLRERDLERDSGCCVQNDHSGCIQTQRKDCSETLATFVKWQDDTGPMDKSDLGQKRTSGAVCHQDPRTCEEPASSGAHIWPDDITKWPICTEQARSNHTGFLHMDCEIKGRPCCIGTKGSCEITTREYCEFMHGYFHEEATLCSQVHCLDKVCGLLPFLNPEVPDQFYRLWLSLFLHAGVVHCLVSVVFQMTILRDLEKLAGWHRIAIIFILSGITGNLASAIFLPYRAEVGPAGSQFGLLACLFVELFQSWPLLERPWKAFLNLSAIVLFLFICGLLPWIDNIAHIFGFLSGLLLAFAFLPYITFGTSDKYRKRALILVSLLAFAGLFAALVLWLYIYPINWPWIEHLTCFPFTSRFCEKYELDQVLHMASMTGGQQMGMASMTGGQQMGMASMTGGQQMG

T2: hiR2-FL-G546A-T7 (human, UniProt Q6PJF5 1-856)
T2 sequence: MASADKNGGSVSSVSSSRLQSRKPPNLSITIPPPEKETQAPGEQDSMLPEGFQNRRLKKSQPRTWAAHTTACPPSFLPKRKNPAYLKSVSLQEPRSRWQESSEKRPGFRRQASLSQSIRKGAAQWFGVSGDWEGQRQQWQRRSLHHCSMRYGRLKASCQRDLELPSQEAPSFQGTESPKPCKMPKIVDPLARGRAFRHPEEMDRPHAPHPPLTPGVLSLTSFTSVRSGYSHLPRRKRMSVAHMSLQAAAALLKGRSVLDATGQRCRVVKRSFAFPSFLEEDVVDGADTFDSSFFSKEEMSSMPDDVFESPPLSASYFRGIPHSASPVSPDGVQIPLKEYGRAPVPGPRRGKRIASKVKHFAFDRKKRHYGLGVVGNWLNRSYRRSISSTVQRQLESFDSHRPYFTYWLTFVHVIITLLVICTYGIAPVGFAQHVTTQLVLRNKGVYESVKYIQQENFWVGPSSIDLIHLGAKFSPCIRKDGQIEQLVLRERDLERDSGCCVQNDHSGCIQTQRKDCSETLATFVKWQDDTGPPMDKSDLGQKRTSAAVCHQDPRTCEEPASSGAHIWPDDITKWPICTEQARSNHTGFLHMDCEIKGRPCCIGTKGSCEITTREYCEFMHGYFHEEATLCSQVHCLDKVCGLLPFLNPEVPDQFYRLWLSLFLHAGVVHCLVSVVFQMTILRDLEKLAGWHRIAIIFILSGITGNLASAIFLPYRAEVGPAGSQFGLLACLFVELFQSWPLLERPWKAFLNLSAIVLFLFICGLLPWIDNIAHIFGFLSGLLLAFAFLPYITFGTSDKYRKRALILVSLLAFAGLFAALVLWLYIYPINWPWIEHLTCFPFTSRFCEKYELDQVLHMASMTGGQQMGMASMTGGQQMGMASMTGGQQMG

B1: antibody 5 (antibody, V domains shown)
VH: QVTLKESGPGILQPSQTLSLTCSFSGFSLSTFGMGVGWIRQPSGKGLEWLAHIWWDDEKYYNSALKSRLTISKATSKNQAFLKIANVDTADTATYYCARISNYGSNYWYFNVWGTGTTVTVSS
VL: QVVLTQSPALMSASPGEKVTMTCSAGSSVSCMYWYQQKPGSSPRVLIYDTSNLASGVPARFTGSGSGTSYSLTISRMEAEDAASYYCQQWNSYPLTFGAGTKLELK
notes: mouse IgG, kappa light chain; also called clone #5; purified antibody 5
B2: antibody 44 (antibody, V domains shown)
VH: B1 VH with G44E, E58D, S63P, A74D, A80I, A85T, D91E, A98S, S101G, N111D
VL: QIVLTQSPAVMSASPGEKVTMTCTASSSVYYMYWYQQTPGSSPRLLIYDTSNLASGVPVRFSGSGSGTSYSLTISRMEAEDAATYYCQQWNTYPLTFGAGTKLELK
notes: mouse IgG, kappa light chain; also called clone #44; purified antibody 44
B3: antibody 42 (antibody, V domains shown)
VH: B1 VH with F24L, M34R, S63P, A74D, A80V, K83R, S101Q, N111D
VL: LIVLTQSPAIMSASPGEKVTMTCGATSRISYMFWYQQKPGSSPRVLIYDTSNLASGVPVRFSGSGSGTSYSLTISRVEAEDVATYYCQQWNSYPLTFGAGTKLELK
notes: mouse IgG, kappa light chain; also called clone #42; purified antibody 42
B4: antibody 43 (antibody, V domains shown)
VH: B1 VH with T3A, P42S, H52N, E58D, S63P, A74D, T75A, S101G, N111D
VL: B3 VL with L1Q, K18R, G24S, T26N, F33Y, V45L, V77M, V82A, Y86N, N91S
notes: mouse IgG, kappa light chain; also called clone #43; purified antibody 43
B5: antibody 22 (antibody, V domains shown)
VH: B1 VH with A80V
VL: B1 VL with C31Y, S84T
notes: mouse IgG, kappa light chain; also called clone #22; purified antibody 22
B6: antibody 16 (antibody, V domains shown)
VH: QVTLKESGPGILQPSQTLSLTCSFSGFSLSTFALGVGWIRQPSGRGLEWLAHIWWDDDKYYNPALKSRLTISKDTSKNHVFLKIANVDTADTATYYCARITTYYYGMDYWGQGTSVTVSS
VL: DIVLSQSPATLSVTPGDSVSLFCRASQSIGNHLHWYQQESHASPRLLIKYASQSISGIPSRFSGSGSGTDFTLSINSVETEDFGMYFCQQSYNWPLTFGAGTKLELK
notes: mouse IgG, kappa light chain; also called clone #16; purified antibody 16
B7: antibody 3 (antibody, V domains shown)
VH: QVTLKESGPGILQPSQTLSLTCSFSGFSLTTFAMGIGWVRQPSGKGLEWLAHIWWDGEKYNNPVLKSRLTISKDTSKNQVFLRIANVDTPDTATYYCARISSIYYIIDNWGQGTSVTVSS
VL: B6 VL with S5T, D17H, F22S, G30S, H32N, Q38K, E39K, A42E, A51V
notes: mouse IgG, kappa light chain; also called clone #3; purified antibody 3
B8: antibody 34 (antibody, V domains shown)
VH: QVTLKESGPGILQPSQTLSLTCSFSGFSLSTFSLGVGWIRQSSGKGLEWLAHIWWDDEKYYNPALKSRLTISKDTSKNQVFLKIANVDAADTATYYCARAYYSKSYYALDYWGQGTSVTVSS
VL: DIQMTQSPSSLSASLGERVSLTCRASQEISGYLSWLQQKPDGTIKRLIYAASTLDSGVPKRFSGSRSGSDYSLAISSLESEDFADYYCLQYANFPFTFGSGTKLEIK
notes: mouse IgG, kappa light chain; also called clone #34; purified antibody 34
B9: antibody 50 (antibody, V domains shown)
VH: QVQLQQSGAELVRPGASVKVSCKASGYAFSNYLIEWVKQRPGQGLEWIGVINPGSGFTKYNEKFKGKATLTADKSSSTAYMQLSSLTSEDSAVYFCARGLYRAMDYWGQGTSVTVSS
VL: DIQMTQSPASQSASLGESVTITCLASQTIGTWLAWYQQKPGKSPQLLIYAAASLADGVPSRFSGGGSGTKFSFKISSLQAEDFVNYYCQQIYSTPYTFGGGTKLEIK
notes: mouse IgG, kappa light chain; also called clone #50; purified antibody 50

The binders below were run against T1, hiR2-FL-P533-T7 (deletion of P533) (assay: FACS, MEF-DKO cells, 3 µg/ml).
Source text: (§1) In brief, immortalized MEF-DKO-hiR2-FL-WT-T7 cells, MEF-DKO-miR2-FL-WT-T7 cells and MEF-DKO-hiR2-FL-R441K-T7, MEF-DKO-hiR2-FL-K443R-T7, MEF-DKO-hiR2-FL-V459I-T7, MEF-DKO-hiR2-FL-G481Q-T7, MEF-DKO-hiR2-FL-L488R-T7, MEF-DKO-hiR2-FL-L493I-T7, MEF-DKO-hiR2-FL-D496T-T7, MEF-DKO-hiR2-FL-H505R-T7, MEF-DKO-hiR2-FL-Q512L-T7, MEF-DKO-hiR2-FL- R513K-T7, MEF-DKO-hiR2-FL-D528N-T7, MEF-DKO-hiR2-FL-P533-T7, MEF-DKO-hiR2-FL-M534S-T7, MEF-DKO-hiR2-FL-G540S-T7, MEF-DKO-hiR2-FL-R543Q-T7, MEF-DKO-hiR2-FL-T544P-T7, MEF-DKO-hiR2-FL-G546A-T7, MEF-DKO-hiR2-FL-A547V-T7, MEF-DKO-hiR2-FL-R582Q-T7, MEF-DKO-hiR2-FL-F588L-T7, MEF-DKO-hiR2-FL-M591I-T7, MEF-DKO-hiR2-FL-E594K-T7, MEF-DKO-hiR2-FL-E626D-T7, MEF-DKO-hiR2-FL-L657I-T7, and MEF-DKO-hiR2-FL-H835Y-T7 cells were harvested with 10 mM EDTA in PBS, washed and resuspended in FACS buffer (PBS, 3% FBS, 0.05% sodium azide), and seeded in Nunc U-bottom 96-well plates (Thermo Fisher Scientific, USA) at approximately 3×10⁵ cells per well.
(§2) To pellet cells and remove supernatants, the plates were centrifuged at 1,500 rpm and 4° C. for 3 minutes. For primary staining, cells were resuspended in 100 μl per well of either FACS buffer alone (controls) or the purified antibodies 3, 5, 16, 22, 34, 42, 43, 44, 48, and 50 of the invention at 3 μg/ml FACS buffer and incubated on ice for 1 hour. Afterwards, plates were centrifuged at 1,500 rpm and 4° C. for 3 minutes and washed twice with 200 μl per well of FACS buffer. For secondary staining, cells were spun down and resuspended in 100 μl per well of PE-conjugated goat anti-mouse IgG F(ab′)2 detection fragment (Dianova, Germany) diluted 1:100 in FACS buffer. Protected from light, the cell suspensions were incubated on ice for 1 hour. Plates were then centrifuged at 1,500 rpm and 4° C. for 3 minutes and washed three times with 200 μl per well of FACS buffer. Finally, cells were resuspended in 150 μl per well of FACS buffer and analyzed using a BD Accuri™ C6 Plus flow cytometer (Becton Dickinson, Germany).

Row | Binder | loss of binding vs wild type [%]
1 | B1 | ≥ 95
2 | B2 | ≥ 95
3 | B3 | ≥ 95
4 | B4 | ≥ 95
5 | B5 | ≥ 95
6 | B6 | ≥ 95
7 | B7 | ≥ 95
8 | B8 | ≥ 95

What follows are binders tested against T2, hiR2-FL-G546A-T7 (assay: FACS, MEF-DKO cells, 3 µg/ml).
Source text: as §1, §2

Row | Binder | loss of binding vs wild type [%]
9 | B1 | ≥ 95
10 | B2 | ≥ 60
11 | B3 | ≥ 60
12 | B4 | ≥ 60
13 | B5 | ≥ 30
14 | B7 | ≥ 30
15 | B8 | ≥ 60
16 | B9 | ≥ 30
